Among the data in patent publication US20100325744A1 are percentage monomeric and percentage molecules present as monomers values, retold here.

Assay [1] deals with 2F8-HG (human). The experiment in a line: self-association; non-covalent nano-electrospray mass spectrometry at 0.01-10 µM.
Assay [2] deals with 2F8-HG (human). Description: self-association of HG half-molecules; non-covalent nano-electrospray mass spectrometry.

In the assay with 2F8-HG (human) [1], 2F8-HG (antibody) gave a percentage monomeric at low concentrations of 100%. For the same substance, in the assay with 2F8-HG (human) [2], the percentage molecules present as monomers is 15%.
